# From patent publication US20040131609A1 (published 2004)
# B1: clone 3 (PFFF) (Fab, V domains shown)
# VH: QVTLRESGPALVKPTQTLTLTCTFSGFSLSTPGMSVGWIRQPPGKALEWLADIWWDDKKDYNPSLKSRLTISKDTSKNQVVLKVTNMDPADTATYYCARSMITNFYFDVWGQGTTVTVSS
# VL: DIQMTQSPSTLSASVGDRVTITCSASSSVGYMHWYQQKPGKAPKLLIYDTFKLASGVPSRFSGSGSGTEFTLTISSLQPDDFATYYCFQGSFYPFTFGGGTKVEIK
# B2: clone 13 (SFFF) (antibody, V domains shown)
# VH: QVTLRESGPALVKPTQTLTLTCTFSGFSLSTSGMSVGWIRQPPGKALEWLADIWWDDKKDYNPSLKSRLTISKDTSKNQVVLKVTNMDPADTATYYCARSMITNFYFDVWGQGTTVTVSS
# VL: DIQMTQSPSTLSASVGDRVTITCSASSSVGYMHWYQQKPGKAPKLLIYDTFKLASGVPSRFSGSGSGTEFTLTISSLQPDDFATYYCFQGSFYPFTFGGGTKVEIK
# B3: clone 4 (PFFY) (antibody, V domains shown)
# VH: QVTLRESGPALVKPTQTLTLTCTFSGFSLSTPGMSVGWIRQPPGKALEWLADIWWDDKKDYNPSLKSRLTISKDTSKNQVVLKVTNMDPADTATYYCARSMITNFYFDVWGQGTTVTVSS
# VL: DIQMTQSPSTLSASVGDRVTITCSASSSVGYMHWYQQKPGKAPKLLIYDTFKLASGVPSRFSGSGSGTEFTLTISSLQPDDFATYYCFQGSYYPFTFGGGTKVEIK
# B4: clone 12 (PWFF) (antibody, V domains shown)
# VH: QVTLRESGPALVKPTQTLTLTCTFSGFSLSTPGMSVGWIRQPPGKALEWLADIWWDDKKDYNPSLKSRLTISKDTSKNQVVLKVTNMDPADTATYYCARSMITNWYFDVWGQGTTVTVSS
# VL: DIQMTQSPSTLSASVGDRVTITCSASSSVGYMHWYQQKPGKAPKLLIYDTFKLASGVPSRFSGSGSGTEFTLTISSLQPDDFATYYCFQGSFYPFTFGGGTKVEIK
# B5: clone 14 (SFFW) (antibody, V domains shown)
# VH: QVTLRESGPALVKPTQTLTLTCTFSGFSLSTSGMSVGWIRQPPGKALEWLADIWWDDKKDYNPSLKSRLTISKDTSKNQVVLKVTNMDPADTATYYCARSMITNFYFDVWGQGTTVTVSS
# VL: DIQMTQSPSTLSASVGDRVTITCSASSSVGYMHWYQQKPGKAPKLLIYDTFKLASGVPSRFSGSGSGTEFTLTISSLQPDDFATYYCFQGSWYPFTFGGGTKVEIK
# B6: clone 6 (PFYF) (antibody, V domains shown)
# VH: QVTLRESGPALVKPTQTLTLTCTFSGFSLSTPGMSVGWIRQPPGKALEWLADIWWDDKKDYNPSLKSRLTISKDTSKNQVVLKVTNMDPADTATYYCARSMITNFYFDVWGQGTTVTVSS
# VL: DIQMTQSPSTLSASVGDRVTITCSASSSVGYMHWYQQKPGKAPKLLIYDTYKLASGVPSRFSGSGSGTEFTLTISSLQPDDFATYYCFQGSFYPFTFGGGTKVEIK
# B7: clone 16 (PFSG) (antibody, V domains shown)
# VH: QVTLRESGPALVKPTQTLTLTCTFSGFSLSTPGMSVGWIRQPPGKALEWLADIWWDDKKDYNPSLKSRLTISKDTSKNQVVLKVTNMDPADTATYYCARSMITNFYFDVWGQGTTVTVSS
# VL: DIQMTQSPSTLSASVGDRVTITCSASSSVGYMHWYQQKPGKAPKLLIYDTSKLASGVPSRFSGSGSGTEFTLTISSLQPDDFATYYCFQGSGYPFTFGGGTKVEIK
# B8: clone 20 (SFSF) (antibody, V domains shown)
# VH: QVTLRESGPALVKPTQTLTLTCTFSGFSLSTSGMSVGWIRQPPGKALEWLADIWWDDKKDYNPSLKSRLTISKDTSKNQVVLKVTNMDPADTATYYCARSMITNFYFDVWGQGTTVTVSS
# VL: DIQMTQSPSTLSASVGDRVTITCSASSSVGYMHWYQQKPGKAPKLLIYDTSKLASGVPSRFSGSGSGTEFTLTISSLQPDDFATYYCFQGSFYPFTFGGGTKVEIK
# B9: clone 7 (PFFG) (antibody, V domains shown)
# VH: QVTLRESGPALVKPTQTLTLTCTFSGFSLSTPGMSVGWIRQPPGKALEWLADIWWDDKKDYNPSLKSRLTISKDTSKNQVVLKVTNMDPADTATYYCARSMITNFYFDVWGQGTTVTVSS
# VL: DIQMTQSPSTLSASVGDRVTITCSASSSVGYMHWYQQKPGKAPKLLIYDTFKLASGVPSRFSGSGSGTEFTLTISSLQPDDFATYYCFQGSGYPFTFGGGTKVEIK
# B10: clone 1 (AFSF) (Fab, V domains shown)
# VH: QVTLRESGPALVKPTQTLTLTCTFSGFSLSTAGMSVGWIRQPPGKALEWLADIWWDDKKDYNPSLKSRLTISKDTSKNQVVLKVTNMDPADTATYYCARSMITNFYFDVWGQGTTVTVSS
# VL: DIQMTQSPSTLSASVGDRVTITCSASSSVGYMHWYQQKPGKAPKLLIYDTSKLASGVPSRFSGSGSGTEFTLTISSLQPDDFATYYCFQGSFYPFTFGGGTKVEIK
# B11: clone 9 (PFSW) (antibody, V domains shown)
# VH: QVTLRESGPALVKPTQTLTLTCTFSGFSLSTPGMSVGWIRQPPGKALEWLADIWWDDKKDYNPSLKSRLTISKDTSKNQVVLKVTNMDPADTATYYCARSMITNFYFDVWGQGTTVTVSS
# VL: DIQMTQSPSTLSASVGDRVTITCSASSSVGYMHWYQQKPGKAPKLLIYDTSKLASGVPSRFSGSGSGTEFTLTISSLQPDDFATYYCFQGSWYPFTFGGGTKVEIK
# B12: clone 15 (AFSG) (antibody, V domains shown)
# VH: QVTLRESGPALVKPTQTLTLTCTFSGFSLSTAGMSVGWIRQPPGKALEWLADIWWDDKKDYNPSLKSRLTISKDTSKNQVVLKVTNMDPADTATYYCARSMITNFYFDVWGQGTTVTVSS
# VL: DIQMTQSPSTLSASVGDRVTITCSASSSVGYMHWYQQKPGKAPKLLIYDTSKLASGVPSRFSGSGSGTEFTLTISSLQPDDFATYYCFQGSGYPFTFGGGTKVEIK
# B13: clone 19 (SFSW) (antibody, V domains shown)
# VH: QVTLRESGPALVKPTQTLTLTCTFSGFSLSTSGMSVGWIRQPPGKALEWLADIWWDDKKDYNPSLKSRLTISKDTSKNQVVLKVTNMDPADTATYYCARSMITNFYFDVWGQGTTVTVSS
# VL: DIQMTQSPSTLSASVGDRVTITCSASSSVGYMHWYQQKPGKAPKLLIYDTSKLASGVPSRFSGSGSGTEFTLTISSLQPDDFATYYCFQGSWYPFTFGGGTKVEIK
# B14: clone 21 (SWYF) (antibody, V domains shown)
# VH: QVTLRESGPALVKPTQTLTLTCTFSGFSLSTSGMSVGWIRQPPGKALEWLADIWWDDKKDYNPSLKSRLTISKDTSKNQVVLKVTNMDPADTATYYCARSMITNWYFDVWGQGTTVTVSS
# VL: DIQMTQSPSTLSASVGDRVTITCSASSSVGYMHWYQQKPGKAPKLLIYDTYKLASGVPSRFSGSGSGTEFTLTISSLQPDDFATYYCFQGSFYPFTFGGGTKVEIK
# B15: clone 2 (AFFG) (Fab, V domains shown)
# VH: QVTLRESGPALVKPTQTLTLTCTFSGFSLSTAGMSVGWIRQPPGKALEWLADIWWDDKKDYNPSLKSRLTISKDTSKNQVVLKVTNMDPADTATYYCARSMITNFYFDVWGQGTTVTVSS
# VL: DIQMTQSPSTLSASVGDRVTITCSASSSVGYMHWYQQKPGKAPKLLIYDTFKLASGVPSRFSGSGSGTEFTLTISSLQPDDFATYYCFQGSGYPFTFGGGTKVEIK
# B16: clone 5 (PFFW) (antibody, V domains shown)
# VH: QVTLRESGPALVKPTQTLTLTCTFSGFSLSTPGMSVGWIRQPPGKALEWLADIWWDDKKDYNPSLKSRLTISKDTSKNQVVLKVTNMDPADTATYYCARSMITNFYFDVWGQGTTVTVSS
# VL: DIQMTQSPSTLSASVGDRVTITCSASSSVGYMHWYQQKPGKAPKLLIYDTFKLASGVPSRFSGSGSGTEFTLTISSLQPDDFATYYCFQGSWYPFTFGGGTKVEIK
# B17: clone 10 (PFSF) (antibody, V domains shown)
# VH: QVTLRESGPALVKPTQTLTLTCTFSGFSLSTPGMSVGWIRQPPGKALEWLADIWWDDKKDYNPSLKSRLTISKDTSKNQVVLKVTNMDPADTATYYCARSMITNFYFDVWGQGTTVTVSS
# VL: DIQMTQSPSTLSASVGDRVTITCSASSSVGYMHWYQQKPGKAPKLLIYDTSKLASGVPSRFSGSGSGTEFTLTISSLQPDDFATYYCFQGSFYPFTFGGGTKVEIK
# B18: reference antibody IX-493 (SWSG) (Fab, V domains shown)
# VH: QVTLRESGPALVKPTQTLTLTCTFSGFSLSTSGMSVGWIRQPPGKALEWLADIWWDDKKDYNPSLKSRLTISKDTSKNQVVLKVTNMDPADTATYYCARSMITNWYFDVWGQGTTVTVSS
# VL: DIQMTQSPSTLSASVGDRVTITCSASSSVGYMHWYQQKPGKAPKLLIYDTSKLASGVPSRFSGSGSGTEFTLTISSLQPDDFATYYCFQGSGYPFTFGGGTKVEIK
# notes: also called Basic; basic antibody
# B19: clone 11 (PWFW) (antibody, V domains shown)
# VH: QVTLRESGPALVKPTQTLTLTCTFSGFSLSTPGMSVGWIRQPPGKALEWLADIWWDDKKDYNPSLKSRLTISKDTSKNQVVLKVTNMDPADTATYYCARSMITNWYFDVWGQGTTVTVSS
# VL: DIQMTQSPSTLSASVGDRVTITCSASSSVGYMHWYQQKPGKAPKLLIYDTFKLASGVPSRFSGSGSGTEFTLTISSLQPDDFATYYCFQGSWYPFTFGGGTKVEIK
# B20: clone 17 (PWSW) (antibody, V domains shown)
# VH: QVTLRESGPALVKPTQTLTLTCTFSGFSLSTPGMSVGWIRQPPGKALEWLADIWWDDKKDYNPSLKSRLTISKDTSKNQVVLKVTNMDPADTATYYCARSMITNWYFDVWGQGTTVTVSS
# VL: DIQMTQSPSTLSASVGDRVTITCSASSSVGYMHWYQQKPGKAPKLLIYDTSKLASGVPSRFSGSGSGTEFTLTISSLQPDDFATYYCFQGSWYPFTFGGGTKVEIK
# B21: clone 18 (SFFG) (antibody, V domains shown)
# VH: QVTLRESGPALVKPTQTLTLTCTFSGFSLSTSGMSVGWIRQPPGKALEWLADIWWDDKKDYNPSLKSRLTISKDTSKNQVVLKVTNMDPADTATYYCARSMITNFYFDVWGQGTTVTVSS
# VL: DIQMTQSPSTLSASVGDRVTITCSASSSVGYMHWYQQKPGKAPKLLIYDTFKLASGVPSRFSGSGSGTEFTLTISSLQPDDFATYYCFQGSGYPFTFGGGTKVEIK
# Target: T1, RSV F antigen (respiratory syncytial virus (RSV), UniProt P03420 26-524)
# T1 construct: also called F antigen of RSV; RSV F protein
# Assay: antibody titration ELISA on 500 ng RSV F antigen; qualitative score from titration curves
# T1 sequence (P03420 26-524): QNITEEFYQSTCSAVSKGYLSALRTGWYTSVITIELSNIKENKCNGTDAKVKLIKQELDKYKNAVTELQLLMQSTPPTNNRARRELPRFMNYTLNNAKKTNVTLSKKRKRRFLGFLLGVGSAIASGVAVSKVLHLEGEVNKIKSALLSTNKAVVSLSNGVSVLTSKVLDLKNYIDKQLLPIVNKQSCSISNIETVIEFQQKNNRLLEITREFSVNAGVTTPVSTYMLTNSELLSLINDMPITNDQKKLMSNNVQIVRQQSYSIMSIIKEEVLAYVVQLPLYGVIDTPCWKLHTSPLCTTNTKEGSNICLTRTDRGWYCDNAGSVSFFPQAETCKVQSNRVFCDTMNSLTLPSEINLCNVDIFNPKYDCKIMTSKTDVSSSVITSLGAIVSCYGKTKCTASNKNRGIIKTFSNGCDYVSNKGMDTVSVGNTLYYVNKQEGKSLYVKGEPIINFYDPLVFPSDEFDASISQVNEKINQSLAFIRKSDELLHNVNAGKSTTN
row,Binder,Ag Score
1,B1,4 arbitrary score (0-4)
2,B2,2.5 arbitrary score (0-4)
3,B3,3.5 arbitrary score (0-4)
4,B4,2.5 arbitrary score (0-4)
5,B5,2.5 arbitrary score (0-4)
6,B6,3.5 arbitrary score (0-4)
7,B7,2 arbitrary score (0-4)
8,B8,2 arbitrary score (0-4)
9,B9,3 arbitrary score (0-4)
10,B10,4 arbitrary score (0-4)
11,B11,3 arbitrary score (0-4)
12,B12,2.5 arbitrary score (0-4)
13,B13,2 arbitrary score (0-4)
14,B14,2 arbitrary score (0-4)
15,B15,4 arbitrary score (0-4)
16,B16,3.5 arbitrary score (0-4)
17,B17,3 arbitrary score (0-4)
18,B18,0.1 arbitrary score (0-4)
19,B19,3 arbitrary score (0-4)
20,B20,2 arbitrary score (0-4)
21,B21,2 arbitrary score (0-4)
